Assay results taken from patent publication US11965039B2, “Compstatin analogues and their medical uses” (priority 2018, dated 2024).
Starred links: 1 amine or outer side, 2 acyl side, 3 side chain; linkers in the order of their positions; H or OH if unused. Positions of bridges follow the written chain, without caps; N, C: chain ends. Non-standard residues stand in square brackets, D forms with d. Groups on a side chain read outwards from the residue. *: point of attachment. Trp(1-Me) = Cn1cc(C[C@H](N)C(=O)O)c2ccccc21; C16 diacid = O=C(O)CCCCCCCCCCCCCCC(=O)*; γGlu = O=C(O)[C@H](CCC(=O)[*:2])N[*:1]; AEEA = NCCOCCOCC(=O)O; Sar = CNCC(=O)O

How the values were obtained:
[1] = target: T1, Human C3 (Complement tech cat #A113c) (human, UniProt P01024 23-1663); experiment: cell-based or functional assay
T1 sequence (P01024 23-1663 limits assumed): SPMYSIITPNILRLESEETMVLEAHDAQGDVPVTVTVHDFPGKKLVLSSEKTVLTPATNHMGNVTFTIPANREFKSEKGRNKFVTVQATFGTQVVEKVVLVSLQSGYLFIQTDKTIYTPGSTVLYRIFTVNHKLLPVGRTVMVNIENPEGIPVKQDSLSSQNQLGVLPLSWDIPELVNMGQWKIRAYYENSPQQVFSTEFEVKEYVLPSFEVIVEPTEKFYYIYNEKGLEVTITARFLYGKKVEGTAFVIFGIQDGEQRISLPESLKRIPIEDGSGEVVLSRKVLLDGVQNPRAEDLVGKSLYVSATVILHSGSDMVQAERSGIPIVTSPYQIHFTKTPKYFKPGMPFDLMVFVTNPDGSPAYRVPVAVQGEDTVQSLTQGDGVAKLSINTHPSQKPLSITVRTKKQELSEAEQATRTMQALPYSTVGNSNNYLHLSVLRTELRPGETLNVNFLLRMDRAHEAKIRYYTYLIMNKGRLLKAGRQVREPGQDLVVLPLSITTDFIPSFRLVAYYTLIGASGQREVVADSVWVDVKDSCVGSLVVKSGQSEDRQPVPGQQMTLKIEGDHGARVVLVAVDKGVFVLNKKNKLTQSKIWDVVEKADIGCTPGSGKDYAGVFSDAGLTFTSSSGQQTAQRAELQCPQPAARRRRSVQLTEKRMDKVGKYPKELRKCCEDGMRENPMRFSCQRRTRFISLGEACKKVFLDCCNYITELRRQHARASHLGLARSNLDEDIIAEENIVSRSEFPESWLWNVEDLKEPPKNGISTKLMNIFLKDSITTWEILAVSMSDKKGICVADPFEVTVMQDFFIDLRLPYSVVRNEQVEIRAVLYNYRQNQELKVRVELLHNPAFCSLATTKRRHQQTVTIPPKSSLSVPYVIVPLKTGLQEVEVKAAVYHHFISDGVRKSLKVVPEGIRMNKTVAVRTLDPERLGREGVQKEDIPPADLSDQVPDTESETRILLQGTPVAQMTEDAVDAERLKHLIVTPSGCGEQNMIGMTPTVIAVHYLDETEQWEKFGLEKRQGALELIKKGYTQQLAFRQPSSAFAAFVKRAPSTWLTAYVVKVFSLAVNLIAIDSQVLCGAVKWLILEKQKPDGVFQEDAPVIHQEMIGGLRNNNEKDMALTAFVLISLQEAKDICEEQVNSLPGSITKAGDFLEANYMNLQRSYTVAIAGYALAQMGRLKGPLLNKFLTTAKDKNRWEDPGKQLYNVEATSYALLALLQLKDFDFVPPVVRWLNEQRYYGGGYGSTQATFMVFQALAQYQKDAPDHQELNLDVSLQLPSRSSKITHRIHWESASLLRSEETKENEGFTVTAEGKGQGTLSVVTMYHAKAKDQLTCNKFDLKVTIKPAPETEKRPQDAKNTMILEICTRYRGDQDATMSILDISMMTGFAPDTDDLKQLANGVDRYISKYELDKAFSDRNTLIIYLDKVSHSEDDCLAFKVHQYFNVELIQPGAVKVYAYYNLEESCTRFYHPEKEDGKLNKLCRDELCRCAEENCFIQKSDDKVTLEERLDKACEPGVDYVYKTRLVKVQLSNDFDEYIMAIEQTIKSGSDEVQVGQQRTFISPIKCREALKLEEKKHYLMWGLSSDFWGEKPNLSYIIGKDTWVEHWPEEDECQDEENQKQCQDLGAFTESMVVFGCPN

[2] = target: T1, Human C3 (Complement tech cat #A113c); experiment: SPR (Biacore T200), human C3 immobilised, peptide injected, 1:1 fit
Experimental: Surface plasmon resonance (SPR) was used to characterize peptides with respect to their binding affinity (Kd) for C3. Human C3 (Complement tech cat #A113c) was immobilised on individual flow cells of CM5 sensor chips (GE Healthcare) using standard amine coupling to a density of approximately 3000 resonance units (RU) in a buffer consisting of 10 mM phosphate pH 7.4, 150 mM NaCl, 0.05% Tween20.
For interaction experiments a multi-cycle experiment approach was used and performed using a BiacoreT200™ instrument (GE Healthcare) at 25° C. Peptides were injected in increasing concentration series (6-8 different concentrations) for 60-120 sat a flow rate of 30 µL/min in a buffer consisting of 10 mM Tris buffer at pH 7.4, with 150 mM NaCl and 0.05% Tween20. This was followed by a dissociation period for up to 10 min. The C3 surface was regenerated between runs by a 45 s injection of 3 M MgCl_2.

Kd [2]	Binder	inhibition of hemolysis IC50 [1]
1.7 nM	Ac-FCI[Trp(1-Me)]QDWGEHRCTGAESK([AEEA-AEEA-γGlu-C16 diacid])-NH2 (disulfide 2-12; SMILES CC[C@H](C)[C@@H]1NC(=O)[C@@H](NC(=O)[C@H](Cc2ccccc2)NC(C)=O)CSSC[C@@H](C(=O)N[C@H](C(=O)NCC(=O)N[C@@H](C)C(=O)N[C@@H](CCC(=O)O)C(=O)N[C@@H](CO)C(=O)N[C@@H](CCCCNC(=O)COCCOCCNC(=O)COCCOCCNC(=O)CC[C@H](NC(=O)CCCCCCCCCCCCCCC(=O)O)C(=O)O)C(N)=O)[C@@H](C)O)NC(=O)[C@H](CCCNC(=N)N)NC(=O)[C@H](Cc2c[nH]cn2)NC(=O)[C@H](CCC(=O)O)NC(=O)CNC(=O)[C@H](Cc2c[nH]c3ccccc23)NC(=O)[C@H](CC(=O)O)NC(=O)[C@H](CCC(N)=O)NC(=O)[C@H](Cc2cn(C)c3ccccc23)NC1=O) [Compound 102]	< 100 nM
–	Ac-GEFCI[Trp(1-Me)]QDWGEHRC[Sar]EA-NH2 (disulfide 4-14; SMILES CC[C@H](C)[C@@H]1NC(=O)[C@@H](NC(=O)[C@H](Cc2ccccc2)NC(=O)[C@H](CCC(=O)O)NC(=O)CNC(C)=O)CSSC[C@@H](C(=O)N(C)CC(=O)N[C@@H](CCC(=O)O)C(=O)N[C@@H](C)C(N)=O)NC(=O)[C@H](CCCNC(=N)N)NC(=O)[C@H](Cc2c[nH]cn2)NC(=O)[C@H](CCC(=O)O)NC(=O)CNC(=O)[C@H](Cc2c[nH]c3ccccc23)NC(=O)[C@H](CC(=O)O)NC(=O)[C@H](CCC(N)=O)NC(=O)[C@H](Cc2cn(C)c3ccccc23)NC1=O) [Compound 87]	< 100 nM
–	Ac-SE[Sar]CI[Trp(1-Me)]QEWGEHRC[Sar]EA-NH2 (disulfide 4-14; SMILES CC[C@H](C)[C@@H]1NC(=O)[C@@H](NC(=O)CN(C)C(=O)[C@H](CCC(=O)O)NC(=O)[C@H](CO)NC(C)=O)CSSC[C@@H](C(=O)N(C)CC(=O)N[C@@H](CCC(=O)O)C(=O)N[C@@H](C)C(N)=O)NC(=O)[C@H](CCCNC(=N)N)NC(=O)[C@H](Cc2c[nH]cn2)NC(=O)[C@H](CCC(=O)O)NC(=O)CNC(=O)[C@H](Cc2c[nH]c3ccccc23)NC(=O)[C@H](CCC(=O)O)NC(=O)[C@H](CCC(N)=O)NC(=O)[C@H](Cc2cn(C)c3ccccc23)NC1=O) [Compound 90]	< 250 nM
–	Ac-SE[Sar]CI[Trp(1-Me)]QEW[Sar]EHRCTEA-NH2 (disulfide 4-14; SMILES CC[C@H](C)[C@@H]1NC(=O)[C@@H](NC(=O)CN(C)C(=O)[C@H](CCC(=O)O)NC(=O)[C@H](CO)NC(C)=O)CSSC[C@@H](C(=O)N[C@H](C(=O)N[C@@H](CCC(=O)O)C(=O)N[C@@H](C)C(N)=O)[C@@H](C)O)NC(=O)[C@H](CCCNC(=N)N)NC(=O)[C@H](Cc2c[nH]cn2)NC(=O)[C@H](CCC(=O)O)NC(=O)CN(C)C(=O)[C@H](Cc2c[nH]c3ccccc23)NC(=O)[C@H](CCC(=O)O)NC(=O)[C@H](CCC(N)=O)NC(=O)[C@H](Cc2cn(C)c3ccccc23)NC1=O) [Compound 89]	< 100 nM
1.5 nM	Ac-ICI[Trp(1-Me)]QDWGEHRCT-NH2 (disulfide 2-12; SMILES CC[C@H](C)[C@H](NC(C)=O)C(=O)N[C@H]1CSSC[C@@H](C(=O)N[C@H](C(N)=O)[C@@H](C)O)NC(=O)[C@H](CCCNC(=N)N)NC(=O)[C@H](Cc2c[nH]cn2)NC(=O)[C@H](CCC(=O)O)NC(=O)CNC(=O)[C@H](Cc2c[nH]c3ccccc23)NC(=O)[C@H](CC(=O)O)NC(=O)[C@H](CCC(N)=O)NC(=O)[C@H](Cc2cn(C)c3ccccc23)NC(=O)[C@H]([C@@H](C)CC)NC1=O) [Compound 4]	< 100 nM
–	H-[dY][Sar]CI[Trp(1-Me)]QDWGEHRCTEA-NH2 (disulfide 3-13; SMILES CC[C@H](C)[C@@H]1NC(=O)[C@@H](NC(=O)CN(C)C(=O)[C@H](N)Cc2ccc(O)cc2)CSSC[C@@H](C(=O)N[C@H](C(=O)N[C@@H](CCC(=O)O)C(=O)N[C@@H](C)C(N)=O)[C@@H](C)O)NC(=O)[C@H](CCCNC(=N)N)NC(=O)[C@H](Cc2c[nH]cn2)NC(=O)[C@H](CCC(=O)O)NC(=O)CNC(=O)[C@H](Cc2c[nH]c3ccccc23)NC(=O)[C@H](CC(=O)O)NC(=O)[C@H](CCC(N)=O)NC(=O)[C@H](Cc2cn(C)c3ccccc23)NC1=O) [Compound 91]	< 100 nM
34 nM	Ac-EGSAYCI[Trp(1-Me)]QDWGEHRC[Sar]EGK([AEEA-AEEA-γGlu-C16 diacid])-NH2 (disulfide 6-16; SMILES CC[C@H](C)[C@@H]1NC(=O)[C@@H](NC(=O)[C@H](Cc2ccc(O)cc2)NC(=O)[C@H](C)NC(=O)[C@H](CO)NC(=O)CNC(=O)[C@H](CCC(=O)O)NC(C)=O)CSSC[C@@H](C(=O)N(C)CC(=O)N[C@@H](CCC(=O)O)C(=O)NCC(=O)N[C@@H](CCCCNC(=O)COCCOCCNC(=O)COCCOCCNC(=O)CC[C@H](NC(=O)CCCCCCCCCCCCCCC(=O)O)C(=O)O)C(N)=O)NC(=O)[C@H](CCCNC(=N)N)NC(=O)[C@H](Cc2c[nH]cn2)NC(=O)[C@H](CCC(=O)O)NC(=O)CNC(=O)[C@H](Cc2c[nH]c3ccccc23)NC(=O)[C@H](CC(=O)O)NC(=O)[C@H](CCC(N)=O)NC(=O)[C@H](Cc2cn(C)c3ccccc23)NC1=O) [Compound 104]	< 100 nM
–	Ac-GE[Sar]CI[Trp(1-Me)]QDWGEHRCTEA-NH2 (disulfide 4-14; SMILES CC[C@H](C)[C@@H]1NC(=O)[C@@H](NC(=O)CN(C)C(=O)[C@H](CCC(=O)O)NC(=O)CNC(C)=O)CSSC[C@@H](C(=O)N[C@H](C(=O)N[C@@H](CCC(=O)O)C(=O)N[C@@H](C)C(N)=O)[C@@H](C)O)NC(=O)[C@H](CCCNC(=N)N)NC(=O)[C@H](Cc2c[nH]cn2)NC(=O)[C@H](CCC(=O)O)NC(=O)CNC(=O)[C@H](Cc2c[nH]c3ccccc23)NC(=O)[C@H](CC(=O)O)NC(=O)[C@H](CCC(N)=O)NC(=O)[C@H](Cc2cn(C)c3ccccc23)NC1=O) [Compound 88]	< 100 nM
–	Ac-SEFCI[Trp(1-Me)]QEWGEHRC[Sar]EA-NH2 (disulfide 4-14; SMILES CC[C@H](C)[C@@H]1NC(=O)[C@@H](NC(=O)[C@H](Cc2ccccc2)NC(=O)[C@H](CCC(=O)O)NC(=O)[C@H](CO)NC(C)=O)CSSC[C@@H](C(=O)N(C)CC(=O)N[C@@H](CCC(=O)O)C(=O)N[C@@H](C)C(N)=O)NC(=O)[C@H](CCCNC(=N)N)NC(=O)[C@H](Cc2c[nH]cn2)NC(=O)[C@H](CCC(=O)O)NC(=O)CNC(=O)[C@H](Cc2c[nH]c3ccccc23)NC(=O)[C@H](CCC(=O)O)NC(=O)[C@H](CCC(N)=O)NC(=O)[C@H](Cc2cn(C)c3ccccc23)NC1=O) [Compound 83]	< 100 nM
–	Ac-SEFCI[Trp(1-Me)]QDWGEHRCSEA-NH2 (disulfide 4-14; SMILES CC[C@H](C)[C@@H]1NC(=O)[C@@H](NC(=O)[C@H](Cc2ccccc2)NC(=O)[C@H](CCC(=O)O)NC(=O)[C@H](CO)NC(C)=O)CSSC[C@@H](C(=O)N[C@@H](CO)C(=O)N[C@@H](CCC(=O)O)C(=O)N[C@@H](C)C(N)=O)NC(=O)[C@H](CCCNC(=N)N)NC(=O)[C@H](Cc2c[nH]cn2)NC(=O)[C@H](CCC(=O)O)NC(=O)CNC(=O)[C@H](Cc2c[nH]c3ccccc23)NC(=O)[C@H](CC(=O)O)NC(=O)[C@H](CCC(N)=O)NC(=O)[C@H](Cc2cn(C)c3ccccc23)NC1=O) [Compound 84]	< 100 nM
–	Ac-ICIWQDWGEHRCTEGK([AEEA-AEEA-γGlu-C16 diacid])-NH2 (disulfide 2-12; SMILES CC[C@H](C)[C@H](NC(C)=O)C(=O)N[C@H]1CSSC[C@@H](C(=O)N[C@H](C(=O)N[C@@H](CCC(=O)O)C(=O)NCC(=O)N[C@@H](CCCCNC(=O)COCCOCCNC(=O)COCCOCCNC(=O)CC[C@H](NC(=O)CCCCCCCCCCCCCCC(=O)O)C(=O)O)C(N)=O)[C@@H](C)O)NC(=O)[C@H](CCCNC(=N)N)NC(=O)[C@H](Cc2c[nH]cn2)NC(=O)[C@H](CCC(=O)O)NC(=O)CNC(=O)[C@H](Cc2c[nH]c3ccccc23)NC(=O)[C@H](CC(=O)O)NC(=O)[C@H](CCC(N)=O)NC(=O)[C@H](Cc2c[nH]c3ccccc23)NC(=O)[C@H]([C@@H](C)CC)NC1=O) [Compound 93]	< 500 nM
–	Ac-ICIWQDWGEHRCTEGK([γGlu-C16 diacid])-NH2 (disulfide 2-12; SMILES CC[C@H](C)[C@H](NC(C)=O)C(=O)N[C@H]1CSSC[C@@H](C(=O)N[C@H](C(=O)N[C@@H](CCC(=O)O)C(=O)NCC(=O)N[C@@H](CCCCNC(=O)CC[C@H](NC(=O)CCCCCCCCCCCCCCC(=O)O)C(=O)O)C(N)=O)[C@@H](C)O)NC(=O)[C@H](CCCNC(=N)N)NC(=O)[C@H](Cc2c[nH]cn2)NC(=O)[C@H](CCC(=O)O)NC(=O)CNC(=O)[C@H](Cc2c[nH]c3ccccc23)NC(=O)[C@H](CC(=O)O)NC(=O)[C@H](CCC(N)=O)NC(=O)[C@H](Cc2c[nH]c3ccccc23)NC(=O)[C@H]([C@@H](C)CC)NC1=O) [Compound 92]	< 1000 nM
